# Molecular target: CD33 on U937 cells (UniProt P20138)
# Assay: cell-based or functional assay
# Chain of CD33 on U937 cells (P20138 18-364 limits assumed): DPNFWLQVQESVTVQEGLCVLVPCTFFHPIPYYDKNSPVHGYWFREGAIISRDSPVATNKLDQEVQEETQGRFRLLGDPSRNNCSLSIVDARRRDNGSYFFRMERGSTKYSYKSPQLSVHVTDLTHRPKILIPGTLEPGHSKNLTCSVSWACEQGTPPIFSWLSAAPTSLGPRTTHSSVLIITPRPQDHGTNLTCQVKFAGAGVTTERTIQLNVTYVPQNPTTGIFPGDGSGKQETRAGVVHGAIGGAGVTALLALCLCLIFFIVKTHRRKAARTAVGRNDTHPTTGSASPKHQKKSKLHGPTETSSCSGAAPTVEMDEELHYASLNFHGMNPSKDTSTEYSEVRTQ
substance,measurement,value
anti-CD33 antibody P67.6,"CD33 % surface expression, 0 min",100%
same,"CD33 % surface expression, 15 min",79%
same,"CD33 % surface expression, 30 min",72%
same,"CD33 % surface expression, 45 min",68%
same,"CD33 % surface expression, 90 min",53%
same,"CD33 % surface expression, 120 min",48%
same,"MFI of pH sensitive dye, CD33 complexes, 0 hours",20.8
same,"MFI of pH sensitive dye, CD33 complexes, 4 hours",26
same,"MFI of pH sensitive dye, CD33 complexes, 24 hours",31.9
